Experimental data published in article doi:10.1101/2021.07.14.452313.
pKd: −log10 of the molar value.

Biological target: biotinylated hACE2-fc (residues 18-740) (human) (UniProt Q9BYF1)
Assay: SPR

Sequence of UniProt Q9BYF1 (Q9BYF1 18-740): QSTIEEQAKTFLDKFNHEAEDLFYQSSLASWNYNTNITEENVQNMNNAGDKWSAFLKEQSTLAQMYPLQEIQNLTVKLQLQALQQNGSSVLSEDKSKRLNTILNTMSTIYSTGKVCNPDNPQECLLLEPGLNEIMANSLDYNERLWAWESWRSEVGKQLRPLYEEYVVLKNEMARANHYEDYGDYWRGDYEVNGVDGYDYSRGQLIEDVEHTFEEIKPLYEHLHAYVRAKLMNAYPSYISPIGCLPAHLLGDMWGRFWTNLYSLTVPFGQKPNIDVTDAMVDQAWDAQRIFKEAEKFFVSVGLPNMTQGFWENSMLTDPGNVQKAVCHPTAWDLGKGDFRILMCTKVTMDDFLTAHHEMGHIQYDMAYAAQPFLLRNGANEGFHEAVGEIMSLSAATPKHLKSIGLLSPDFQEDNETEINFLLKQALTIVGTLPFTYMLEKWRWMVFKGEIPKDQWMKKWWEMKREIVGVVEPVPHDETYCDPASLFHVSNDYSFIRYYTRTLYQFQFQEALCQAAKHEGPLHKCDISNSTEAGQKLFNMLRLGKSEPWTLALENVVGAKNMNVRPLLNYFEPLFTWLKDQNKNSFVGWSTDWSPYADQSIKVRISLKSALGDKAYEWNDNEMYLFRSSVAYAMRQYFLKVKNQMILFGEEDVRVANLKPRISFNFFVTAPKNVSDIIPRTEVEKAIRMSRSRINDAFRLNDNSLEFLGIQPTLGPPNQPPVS

Substance	KD1 (first step, two state fit) [nM]	pKd	ka1 (first step, two state fit) [M⁻¹ s⁻¹]	ka2 (second step, two state fit) [M⁻¹ s⁻¹]	kd1 (first step, two state fit) [s⁻¹]	kd2 (second step, two state fit) [s⁻¹]
SARS-CoV-2 wt trimeric spike protein (domain or fragment)	1.8	10.39	782000	0.0105	0.00141	0.000244
SARS-CoV-2 B.1.1.7 trimeric spike protein (domain or fragment)	193	10.40	1.31e+06	0.053	0.025	0.00011
